Consider 1 substance from patent US20260034244A1.

This assay deals with VEGFR-2.

One may read the EC50 (read off the curve) as the concentration giving half of the maximal effect. A high value points to a less potent agent. As to “VEGF-A (from UniProt P15692 27-191) (ligand)”, the EC50 (read off the curve) worked out at 5 ng/mL.
